Substitutions are numbered along the chain they refer to. Names may count otherwise.
B1: human GLS2 (K253A), residues 38-602 (enzyme)
chain: HHLSEAAAQGRETPHSHQPQHQDHDSSESGMLSRLGDLLFYTIAEGQERIPIHKFTTALKATGLQTSDPRLRDCMSEMHRVVQESSSGGLLDRDLFRKCVSSNIVLLTQAFRKKFVIPDFEEFTGHVDRIFEDVKELTGGKVAAYIPQLAKSNPDLWGVSLCTVDGQRHSVGHTKIPFCLQSCVKPLTYAISISTLGTDYVHKFVGKEPSGLRYNALSLNEEGIPHNPMVNAGAIVVSSLIKMDCNKAEKFDFVLQYLNKMAGNEYMGFSNATFQSEKETGDRNYAIGYYLKEKKCFPKGVDMMAALDLYFQLCSVEVTCESGSVMAATLANGGICPITGESVLSAEAVRNTLSLMHSCGMYDFSGQFAFHVGLPAKSAVSGAILLVVPNVMGMMCLSPPLDKLGNSHRGTSFCQKLVSLFNFHNYDNLRHCARKLDPRREGAEIRNKTVVNLLFAAYSGDVSALRRFALSAMDMEQKDYDSRTALHVAAAEGHIEVVKFLIEACKVNPFAKDRWGNIPLDDAVQFNHLEVVKLLQDYQDSYTLSETQAEAAAEALSKENLESMV
B2: human GLS2 (N308A), residues 38-602 (enzyme)
chain: B1 chain with A216K, N271A

Tests used:
cryo-EM structure = target: the molecule itself; test: cryo-EM structure
negative stain EM = target: the molecule itself; test: negative stain EM

Protein | binding result (cryo-EM structure) | binding result (negative stain EM)
B1 | binds | –
B2 | – | binds
